Assay: yeast display, Sf9 membrane polyspecificity reagent, FACS + sequencing; frameworks hold sequencing errors
In short: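 Synthetic nanobody libraries on Saccharomyces cerevisiae BJ5465 were galactose-induced for 36–48 hours, stained 1 hour at 4 °C with 10% biotinylated, detergent-solubilized Sf9 membrane reagent and enriched on streptavidin microbeads. FACS then separated cells into low and high (top ~1%) gates by anti-HA (expression) and streptavidin (reagent binding) fluorescence. Genes were colony-PCR amplified, MiSeq 2 × 250 sequenced and CDR-length filtered. A clone's polyreactivity label is that of its gate of origin.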

QVQLVESGAGLFQAGGRLRLSCAPSGSTFGTYAMGWYRQAPGKERELVAAITSGGSTDYADSVKGRFTISRDNAKNTVYLQMNSLKPEDTAVYYCNATWELLSYYYLFWGYDYWGQGTQVTVSS
polyreactivity (PSR sort gate): low polyreactivity

QVQLVESGGGLVQAGGSLRLSCAASGITFYGYAMGWYRQAPGKERELVARITASGGSTYYADSVKGRFTISRDNAKNTVYLQMKSLKPEVTAVYYCAKDWYRYSRFDYWGQGTQVTVSS
polyreactivity (PSR sort gate): high polyreactivity

QVQLVESGGGLVQAGGSLRLSCAASGSIFGPYAMGWYRQAHGKERELVAAITISGGSTYYADSVKRRFTISRDNAKNTVYLQINSLKPEDTAVYYCAADYWVDYEYDYYWEYNYWGQGSQVTVSS
polyreactivity (PSR sort gate): high polyreactivity

QVQLVESGGGLVQAGGSLRLSCAASGITFVRYAMGGYRQAPGKESELVAGISRGGSTNYADSVKGRFTISRDNAKNTVYLQMNSLKPEDSAVYYCNALYARRVYVGYDYWGQGTQVTVSS
polyreactivity (PSR sort gate): high polyreactivity

QVQLVESGGGLVQAGGSLRLSCAASGRIFVYNAMGWYRQAPGKERELVAGITASGGSTYYADSGKGRFTISRDNAKNTVYLQMNSLKPEDTAVYYCAATRYKRRYYYWGQGTQVTVSS
polyreactivity (PSR sort gate): high polyreactivity

QVQLVESGGGLVQAGGSLRLSCAASGFTFLRYALGWYRQAPGKERELVAAISTSGGSTSYADSVKGRFTITRDNAKNTVYLQMNSLKPEDTAVYYCNAVLYKVSISEYDYWGQGTQVTVSS
polyreactivity (PSR sort gate): high polyreactivity

QVQLVESGGGLVQSGGSLRLSCAASGIIFQYYAMGWYRQAPGKEMELVAAITSSGGSTFYADSVKGSFTISRDNAKNTVYLQMNSLKPEDTAVYYCAAVYHRSTYDYWGQGTQVNVSS
polyreactivity (PSR sort gate): high polyreactivity

QVQLVESGGGLVQAGGSLRLSCAASGSIFTLYAMGWYRQAPGKERELVAAITRSGGSTYYADSVKGRFTISRDNAKNTVYLQMNSLKPEDTAVYYCNKATAYGLDYWGQATQVTVSS
polyreactivity (PSR sort gate): high polyreactivity

QVQLVESGGGLVQAGGSLRLSCAASGFTFGANDMGRYIQAPGKERELVATISSSGGTTYYADSVKGRFTISRDNAKYTVYLQMNSLKPEDTAVYYCAAKGLFTGRVSRYADDHWGQGTEVTVSS
polyreactivity (PSR sort gate): low polyreactivity

QVQLVESGGGLVQAGGSLRLICAASGRTIDHYAMGWYRQAPGKERELVAAISTTGGSTYYADSVKGRFTISRDNAKNTVYLQMNSLKPEDTAVYYCAARGLRTGGYWGQGTQVTVSS
polyreactivity (PSR sort gate): high polyreactivity

QVQLVESGGGLVQAGGSLRLSCAASGLTFEYYAMGWYRQAPGKERELVAAISRRGSTYYADSVKGRFTISRDNAKNTVYLQMNSLKPEDTAVYYCNAVYYWYKGDYWGQGTQVTVSS
polyreactivity (PSR sort gate): high polyreactivity

QVQLVETGGGLVQAGGSLRLSSAASGFTFGTYAMGWYRQAPGKERELVAAITGSGVRTYYADSVKGRFTISRDIAKYTVFLQMNSLKPEDTAVYYCAADYVVPLAFWTFRFDYWGQGTQVTVSS
polyreactivity (PSR sort gate): low polyreactivity

QVQLVESGGGLVQAGGSLRLSCAASGSIFNYYALGWYRQAPGKEREFVADISGSGSSTYYADSVKGRFTISRDNAQNTVYLQMNSLKPEDTAVYYCNAEYYWGVGYYPYSDYGYWGQGTQVTVSS
polyreactivity (PSR sort gate): low polyreactivity

QVQLVESGGGLVQAGGSLRLSCAASGFIFIIYAMGWYRQAPGKERELVAGIRWSGGSTYYADSVKGRFTISRDNAKNTVYLQMNSLKPEDTAVYYCIKDRGSLTLYTYDYWGQGTQVTVSS
polyreactivity (PSR sort gate): low polyreactivity

QVQLVESGGGLVQAGGSLRLSCAASGFTFNRYAMGWYIEAPGKERELVASITTGGRTNYADSVKGRFTISRDNAKNTVYLQMNSLKPVDTAVYYCAADYCYFYRYYYWGQGTQVTVSS
polyreactivity (PSR sort gate): high polyreactivity

QVQLVESGGGLVQAGGSLRLSRAASGIMFGSYAMGWYRQAPGKERELVAAITSRGGSTYYADSVKGRFTISRDNAKNTVYLQMISLKPEDTAVYYCADVLYYWRVVYYVYADTGDYWGQCTQVTVSS
polyreactivity (PSR sort gate): high polyreactivity

QVQLVESGGGLVQAGGSLRLSCAASGSIFNRYTMGWYRQAPGKEREFVAAIRNSGSRTYYADSVKRRFTISRDNAKNTVYLQMNSLKPEDTAVYYCAADGPLISSESYYWGQGTQVTVSS
polyreactivity (PSR sort gate): low polyreactivity

QVQLVESGGGLVQAGGSLRLSCAPSGRTFRYYAMGWYRQAPGKERELVATISKSGGSTYYADSVKGRFTISRDNAKNTVYLQMNSLKPEDTAVYYCAAPIYNGYASWQVYYWGQGTQVTVSS
polyreactivity (PSR sort gate): high polyreactivity

QVQLVESGGGLVQAGGSLRLSCDASGIIFASYAMGWYRQAPGKERELVAAISGGGSTYYADSEKGRFTISRDNAKNTVYLQMNSLKPVDTAVYYCNAEAYYRWLTNIWYSDFDYWGLGTQVTVSS
polyreactivity (PSR sort gate): low polyreactivity

QVQLVESGGGLVQAGGSLRLSCAASGRTFRINAMGWYRHAPGKERELVAAITRGDTNYADSVKGRFTISRDNAKNTVYLQMNSLKPEDTAVYYCNAELSFRYPVFRELDYWGQGTQVTVSS
polyreactivity (PSR sort gate): low polyreactivity

QVQLVESGGGLVQAGGSLRLSCAASGSIFVLYAMGWYRQAPGKERELVAAITSGASTNYADSVKGRFTISRDNAKNTVYLQMNSLKPEDTAVYYCNTGSRLDRVDSWGQGTQVTVSS
polyreactivity (PSR sort gate): low polyreactivity

QVQLVESGGGLVQAGGSLRLTCAASGLTFTYYAMGWYRQAPGKERELVAAISASGGNTYYADSVKGRFTISRDNAKNTVYLQMNSLKPEDTAVFYCAAESSIYRGYGYSGQGTQVTVSS
polyreactivity (PSR sort gate): high polyreactivity

QVQLQESCGGLVQAGGSQRLSCAASAYIFYFQYMGWYRQAPGKEREFVAAISDGANTNYADSVKGRFTISRDNAKNTEYLQMNSLKPEDTAVYYCAVYADENFYYIYWGQGTEVTVSS
polyreactivity (PSR sort gate): low polyreactivity

QVQLQESGDGLVQAGGSLRLSSAASGTIFSDYGMGGYRQAPGKERELLAGISDGCNTNYTDSVKGRFTISRDNAHRVSADEQPETGGYRGVLLGGSERWLIFYVYWGQGTQVTVSC
polyreactivity (PSR sort gate): high polyreactivity

QVQLVESGGGLVQAGGSLRLSCAASGFIFPGYAMGWYRQAPGKERELVAAISRSGGITYYADSVKGRFTISRDNAKNTVYLQMNSLKPEDTAVYYCAARDRVRDDYWGQGTQVTVSS
polyreactivity (PSR sort gate): high polyreactivity

QVQLVESGGGLVQAGGSLRLSCAASGGIFFTYAMGWYRQAPGKERELVAGISWSDGSTYADSVKGRFTISRDNAKNTVYLQMNSLKPEDTAVYYCNKRIYDLFLSPAAGGYWGQGTQVTVSS
polyreactivity (PSR sort gate): low polyreactivity

QVQLVESGGGLVQAGGSLRLSCAASGSTFSINAMGWYRQAPGKERELVAAISSGGSTYYADSVKGRFTISRDNAKNTVYLQMNSLKPEDTAVYYCAVDPPWTYWSTYRYDYWGQGTQVTVSS
polyreactivity (PSR sort gate): low polyreactivity

QVQLVESGGGLVQAGGSLRLSCAASASIFRSYAMGWYRQAPGKERELVAAISWRGDSTYYADSVKGRFTISRDNAKHTVYLQMNSLKPEDTAVYYCNVQRSLRMDYWGQGTQGTVSS
polyreactivity (PSR sort gate): high polyreactivity

QDQLVESGGGLVQAGGSLRLSCAASGITFPKYAMGWYRQAPGKERELVAAITKSGGSTYYADSVKGRFTISRDNAKNTVYLQMNSLKPEVTAVYYCAARPRYGEYDYWGQGTQVTVSS
polyreactivity (PSR sort gate): high polyreactivity

QVQLVESGGGLVQAGGSLRLSCAASGLIFGNNAMGWYRQAPGKERELVAGIDWSGGSTYYADSVKGRFTISRDNAKNTVDLQMNSLKPEDTAVYYCNAALYVSGHYPNDYWGQGTQVTVSS
polyreactivity (PSR sort gate): low polyreactivity

QVQLVESGGGLVQAGGSLGLSCAASGFTFHKYAMGWYRQAPGKERELVAAITSSGGSTYYADSVKGRFTISRDNAKNTVYLQMNSLKPEDTAVYYCAVGFYYFSSWYSYDYWGQGTQVTVSS
polyreactivity (PSR sort gate): high polyreactivity

QVQLVESGGGLVQAGGSLRLSCAASGRTFEYYAMGWYRQAPGKERELVAAIDSGGSTNYADSVKGRFTISRDNAKNTVYLQMNSLKPEDTAVYYCATEVDQNYNYDYWGQGTQVTVSS
polyreactivity (PSR sort gate): low polyreactivity
